Measured values published in patent US20200115702A1.

Target: BAFF-Fc (Sino Biological) (human) (UniProt Q9Y275)
Test: cell-based or functional assay

IC50, inhibition of BAFF bioactivity in the mouse splenocyte assay: 121 nM
Substance: endogenous BAFF receptor, BR3 (from UniProt Q96RJ3 1-78)
